Measured values taken from patent US20260207669A1 (TIANJIN MEDICAL UNIVERSITY GENERAL HOSPITAL, published 2026).

B1: NB467-71 (Fc fusion)
chain: EVQVVESGGGLVQSGGSLRLSCVASGFNLDHYAIGWFRQIPGKEREGVSCISSGGDSTFYIDSVKGRFTISRDNAKNTVYLQMNSLKPEDTAVYHCAADVYYSGNYLYRSCNPHESKYWGQGTQVTVSS
notes: also called anti-BAFFR nanobody NB467-71; antibody NB467-71; not shown: Human IgG1 Fc fused to the VHH
B2: NB467-7 (Fc fusion)
chain: QVQLVESGGGSVHPGGSLRLSCAGSGFTLAGYAIGWFRQAPGKEREGVSCINSSGGSTYYADSVKGRFTISRDNAKNTVYLQMNSLKPEDTAVYYCAADVYYSGSYLYRSCNPTESKYWGQGTQVTVSS
notes: also called anti-BAFFR nanobody NB467-7; antibody NB467-7; not shown: Human IgG1 Fc fused to the VHH
B3: NB467-88 (Fc fusion)
chain: EVQVVESGGGLVQPGGSLRLSCAASGFRLNYYAIGWFRQAPGKEREGVSCISSGGDRIYYADSVKGRFTISRDNAKNTVYLQMNSLKPEDTAVYYCAADLYYSGSYYYRSCNPAESGYWGQGTQVTVSS
notes: also called anti-BAFFR nanobody NB467-88; antibody NB467-88; not shown: Human IgG1 Fc fused to the VHH

Biological target: T1, human BAFFR overexpressed on 293T cells (human, UniProt Q96RJ3 1-184)
T1 construct: whole, on cells
T1 sequence (looked up): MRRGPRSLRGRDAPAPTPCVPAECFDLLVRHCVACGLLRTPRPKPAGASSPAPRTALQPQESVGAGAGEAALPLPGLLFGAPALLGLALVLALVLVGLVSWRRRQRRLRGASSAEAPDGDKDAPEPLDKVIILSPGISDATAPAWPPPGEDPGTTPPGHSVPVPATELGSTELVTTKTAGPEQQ
Experiment: flow cytometry on HEK-293T-BAFFR cells, anti-human Fc-647 secondary antibody
Procedure: The cells were resuspended in a suitable volume of staining solution for flow cytometry, so that the final cell concentration per tube reached 2×10⁵ cells/mL.
The antibodies NB467-7, NB467-71, and NB467-88 produced in Example 1 and the control antibody were diluted to 200 nM, respectively. […] After incubation, the cells were washed once with a FACS buffer.
The anti-human FC-647 secondary antibody (Jackson, 109-605-003) was diluted according to the instructions, and 100 μL of the diluted secondary antibody was added to a sample tube. After uniform mixing, the system was incubated at 4° C. for 60 min. After incubation, the cells were washed 3 times with FACS, and the cell precipitate obtained by centrifugation was resuspended in 200 μL of PBS and detected by flow cytometry (Sony, SA3800).

| Binder | EC50 [nM] |
| --- | --- |
| B1 | 10.6 |
| B2 | 6.73 |
| B3 | 1.31 |
